This passage reports ratio results from patent US20170137467A1 (CHROMOTEK, published 2017).

Holding throughout (assay): peptide library pulldown on immobilized Nb, LC-MS of supernatant; ratio vs GFP-Nb control (1 = not captured, 0 = captured)
The target in experiment [1] is T1, BC2T H9T library peptide (human).
T1 peptide: Ac-PDRKAAVSTWQQ-NH2
The method in brief:
(§1)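 Unbound peptide left in supernatant after 1 h pulldown in PBS/0.01% CHAPS measured by reversed-phase LC-MS (8–30% eluent B gradient, 20 min).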

The target of experiment [2] is T2, BC2T S8T library peptide (human).
T2 construct: also called BC2TS8X: T
T2 peptide: Ac-PDRKAAVTHWQQ-NH2
The method in brief: as §1

Experiment [3] deals with T3, BC2T W10D library peptide (human).
T3 construct: also called BC2TW10X: D
T3 peptide: Ac-PDRKAAVSHDQQ-NH2
In outline:
as §1

Experiment [4] deals with T4, BC2T H9A library peptide (human).
T4 peptide: Ac-PDRKAAVSAWQQ-NH2
In outline: as §1

Experiment [5] has as its target T5, BC2T S8N library peptide (human).
T5 construct: also called BC2TS8X: N
T5 peptide: Ac-PDRKAAVNHWQQ-NH2
In outline:
as §1

Experiment [6] concerns the target T6, BC2T S8P library peptide (human).
T6 construct: also called BC2TS8X: P
T6 peptide: Ac-PDRKAAVPHWQQ-NH2
The method in brief:
as §1

The target of experiment [7] is T7, BC2T Q11F library peptide (human).
T7 peptide: Ac-PDRKAAVSHWFQ-NH2
In outline:
as §1

Experiment [8] has as its target T8, BC2T Q11E library peptide (human).
T8 peptide: Ac-PDRKAAVSHWEQ-NH2
In outline:
as §1

For experiment [9], the target named is T9, BC2T W10G library peptide (human).
T9 construct: also called BC2TW10X: G
T9 peptide: Ac-PDRKAAVSHGQQ-NH2
The method in brief: as §1

Experiment [10] has as its target T10, BC2T H9K library peptide (human).
T10 peptide: Ac-PDRKAAVSKWQQ-NH2
The method in brief: as §1

The target in experiment [11] is T11, BC2T H9Q library peptide (human).
T11 peptide: Ac-PDRKAAVSQWQQ-NH2
In outline:
as §1

Experiment [12] has as its target T12, BC2T Q11A library peptide (human).
T12 peptide: Ac-PDRKAAVSHWAQ-NH2
In outline:
as §1

In experiment [13] the target is T13, BC2T S8G library peptide (human).
T13 construct: also called BC2TS8X: G
T13 peptide: Ac-PDRKAAVGHWQQ-NH2
In outline: as §1

Experiment [14] deals with T14, BC2T Q11K library peptide (human).
T14 peptide: Ac-PDRKAAVSHWKQ-NH2
The method in brief:
as §1

The target of experiment [15] is T15, BC2T Q11T library peptide (human).
T15 peptide: Ac-PDRKAAVSHWTQ-NH2
In outline: as §1

Experiment [16] concerns the target T16, BC2T S8V library peptide (human).
T16 construct: also called BC2TS8X: V
T16 peptide: Ac-PDRKAAVVHWQQ-NH2
In outline: as §1

The target of experiment [17] is T17, BC2T Q12M library peptide (human).
T17 peptide: Ac-PDRKAAVSHWQM-NH2
The method in brief:
as §1

In experiment [18] the target is T18, BC2T Q12V library peptide (human).
T18 peptide: Ac-PDRKAAVSHWQV-NH2
The method in brief: as §1

Experiment [19] deals with T19, BC2T Q12D library peptide (human).
T19 peptide: Ac-PDRKAAVSHWQD-NH2
The method in brief: as §1

Experiment [20] deals with T20, BC2T Q12W library peptide (human).
T20 peptide: Ac-PDRKAAVSHWQW-NH2
The method in brief: as §1

B1: BC2-Nb(R106E) (VHH)
VHH: QVQLVESGGGLVQPGGSLTLSCTASGFTLDHYDIGWFRQAPGKEREGVSCINNSDDDTYYADSVKGRFTIFMDNAKDTVYLQMNSLKPEDTAIYYCAEARGCKRGEYEYDFWGQGTQVTVSS
notes: Headlock mutant; immobilized on beads in the library pulldown
Consider B1, for which the ratio came out at 0.4 in experiment [1]; 0.1 in [2]; 1.1 in experiment [3]; 0.3 in experiment [4]; 0.5 in experiment [5]; 1 in [6]. Besides, the ratio in experiment [7] stood at 0.1; in experiment [8], 0.4; in experiment [9], 1.2; in experiment [10], 0.2; in experiment [11], 0.3; in [12], 0.3. Also, the ratio came out at 0.8 in experiment [13]; 0.1 in experiment [14]; 0.2 in experiment [15]; 0.2 in experiment [16]; 0.2 in experiment [17]; 0.1 in [18]. The ratio amounted to 0.8 in experiment [19] and 0.2 in experiment [20].
